The binders below were run against T1, recombinant human cardiac troponin T (human, UniProt P45379 2-298) (assay: SPR (Biacore T200, 37 C), Fab captured, cTnT analyte).
T1 construct: In the ECL assay the cTnT came from the Troponin T hs CalSet calibrator; also called cTnT; TnT
Method: Detailed kinetic investigations were performed at 37° C. on a GE Healthcare T200 instrument. A Biacore CM-5 series S sensor was mounted into the instrument and was preconditioned according to the manufacturer's instructions. The system buffer was HBS-ET (10 mM HEPES (pH 7.4), 150 mM NaCl, 1 mM EDTA, 0.05% (w/v) Tween® 20). The sample buffer was the system buffer supplemented with 1 mg/ml CMD (Carboxymethyldextran, Fluka). In one embodiment an anti-human antibody capture system was established on the CMS biosensor. GAHF(ab′)2, (goat anti human F(ab′)2) (Code Nr.: 109-005-097, lot #13.12.2005, Jackson Immuno Research) was immobilized according to the manufacturer's instructions using NHS/EDC chemistry. 30 μg/ml GAHF(ab′)2 in 10 mM sodium acetate buffer (pH 5.0) were preconcentrated to the flow cells 1, 2, 3 and 4 and were immobilized with 10.000 RU GAHF(ab′)2. The sensor was subsequently saturated with 1 M ethanolamine pH 8.5.
Chimeric anti-TnT antibody fragments were periplasmatically expressed in E. coli cells as described and were lyzed by methods known (for technical details see: Andersen, D. C. & Reilly, D. E. (2004); Production technologies for monoclonal antibodies and their fragments. Curr Opin Biotechnol 15, 456-62). The lysates were diluted 1:20 in sample buffer. Fab fragments were captured via their humanized framework regions from the expression lysates on the biosensor at a flow rate of 10 μl/min for 1 min followed by a 2 min washing step with 10-fold concentrated HBS-EP buffer at 30 μl/min. The Fab fragment capture level (CL) in response units (RU) was monitored. Recombinant human TnT (Roche, 37 kDa) was diluted in sample buffer at 90 nM and a concentration series was produced with […], 30 nM, 11 nM, 3.3 nM, 1.1 nM, 0 nM, 3.3 nM TnT concentration. The analyte concentration series were 80 μl/min for 3 min association phase and the dissociation phase was monitored for 3 min.
The kinetic parameters ka [1/Ms], kd [1/s], t1/2 diss [min], KD [M] and the binding stoichiometry (Molar Ratio) (for details see: Schraeml, M. & Biehl, M. (2012); Kinetic screening in the antibody development process. Methods Mol Biol 901, 171-81.) of the cTnT analyte were determined for each Fab fragment mutant with the Biaevaluation Software (GE healthcare) according to the manufacturer's instructions.

Row | Binder | Kd [nM] | MR (Molar Ratio) | koff [s⁻¹] | kon [M⁻¹ s⁻¹] | t/2-diss [min]
1 | parental anti-cTnT Fab fragment (wildtype TnT M-7 Fab, from antibody 12.1A11.11-7) (Fab, V domains shown, also called wildtype Fab; TnT M-7 (wildtype) Fab) VH: EVQLQQSGPELVKPGASVKMSCKASGYTFTDYYMKWVKQSHGKSLEWIGDINPNNGETFYNQKFKDKATLTVDKSSSTAYMQLNSLTSEDSAVYYCATRVFDYWGQGTTLTVSS VL: DIVLTQSPASLAVSLGQRATISCKASQSVDYDGTSYMNWFQQKAGQPPKRLIYAASNLESGIPARFSGRGSGTDFALNIHPVEEEDAATYYCQQSNEDPYTFGGGTKLEIK | 0.58 | 0.6 | 0.0014 | 2.5e+06 | 8
2 | anti-cTnT Fab mutant 1 (Y34F) (Fab, V domains shown, also called combination 1) VH: EVQLQQSGPELVKPGASVKMSCKASGYTFTDYFMKWVKQSHGKSLEWIGDINPNNGETFYNQKFKDKATLTVDKSSSTAYMQLNSLTSEDSAVYYCATRVFDYWGQGTTLTVSS VL: DIVLTQSPASLAVSLGQRATISCKASQSVDYDGTSYMNWFQQKAGQPPKRLIYAASNLESGIPARFSGRGSGTDFALNIHPVEEEDAATYYCQQSNEDPYTFGGGTKLEIK | 0.62 | 0.7 | 0.0014 | 2.3e+06 | 8
3 | anti-cTnT Fab mutant 2 (Y34F, F60W) (Fab, V domains shown, also called combination 2) VH: EVQLQQSGPELVKPGASVKMSCKASGYTFTDYFMKWVKQSHGKSLEWIGDINPNNGETWYNQKFKDKATLTVDKSSSTAYMQLNSLTSEDSAVYYCATRVFDYWGQGTTLTVSS VL: DIVLTQSPASLAVSLGQRATISCKASQSVDYDGTSYMNWFQQKAGQPPKRLIYAASNLESGIPARFSGRGSGTDFALNIHPVEEEDAATYYCQQSNEDPYTFGGGTKLEIK | 0.46 | 0.7 | 0.001 | 2.2e+06 | 11
4 | anti-cTnT Fab mutant 3 (Y34F, F60W, V101Y) (Fab, V domains shown, also called combination 3) VH: EVQLQQSGPELVKPGASVKMSCKASGYTFTDYFMKWVKQSHGKSLEWIGDINPNNGETWYNQKFKDKATLTVDKSSSTAYMQLNSLTSEDSAVYYCATRYFDYWGQGTTLTVSS VL: DIVLTQSPASLAVSLGQRATISCKASQSVDYDGTSYMNWFQQKAGQPPKRLIYAASNLESGIPARFSGRGSGTDFALNIHPVEEEDAATYYCQQSNEDPYTFGGGTKLEIK | 0.37 | 0.7 | 0.00079 | 2.1e+06 | 15
5 | anti-cTnT Fab mutant 4 (Y34F, F60W, Y104F) (Fab, V domains shown, also called combination 4) VH: EVQLQQSGPELVKPGASVKMSCKASGYTFTDYFMKWVKQSHGKSLEWIGDINPNNGETWYNQKFKDKATLTVDKSSSTAYMQLNSLTSEDSAVYYCATRVFDFWGQGTTLTVSS VL: DIVLTQSPASLAVSLGQRATISCKASQSVDYDGTSYMNWFQQKAGQPPKRLIYAASNLESGIPARFSGRGSGTDFALNIHPVEEEDAATYYCQQSNEDPYTFGGGTKLEIK | 0.27 | 0.7 | 0.00072 | 2.7e+06 | 16
6 | anti-cTnT Fab mutant 5 (Y34F, F60W, V101Y + Y104F) (Fab, V domains shown, also called combination 5) VH: EVQLQQSGPELVKPGASVKMSCKASGYTFTDYFMKWVKQSHGKSLEWIGDINPNNGETWYNQKFKDKATLTVDKSSSTAYMQLNSLTSEDSAVYYCATRYFDFWGQGTTLTVSS VL: DIVLTQSPASLAVSLGQRATISCKASQSVDYDGTSYMNWFQQKAGQPPKRLIYAASNLESGIPARFSGRGSGTDFALNIHPVEEEDAATYYCQQSNEDPYTFGGGTKLEIK | 0.23 | 0.7 | 0.00057 | 2.4e+06 | 20
7 | anti-cTnT Fab mutant 7 (Y34F, Y104F) (Fab, V domains shown, also called combination 7) VH: EVQLQQSGPELVKPGASVKMSCKASGYTFTDYFMKWVKQSHGKSLEWIGDINPNNGETFYNQKFKDKATLTVDKSSSTAYMQLNSLTSEDSAVYYCATRVFDFWGQGTTLTVSS VL: DIVLTQSPASLAVSLGQRATISCKASQSVDYDGTSYMNWFQQKAGQPPKRLIYAASNLESGIPARFSGRGSGTDFALNIHPVEEEDAATYYCQQSNEDPYTFGGGTKLEIK | 0.45 | 0.7 | 0.0011 | 2.4e+06 | 11
8 | anti-cTnT Fab mutant 8 (Y34F, V101Y + Y104F) (Fab, V domains shown, also called combination 8) VH: EVQLQQSGPELVKPGASVKMSCKASGYTFTDYFMKWVKQSHGKSLEWIGDINPNNGETFYNQKFKDKATLTVDKSSSTAYMQLNSLTSEDSAVYYCATRYFDFWGQGTTLTVSS VL: DIVLTQSPASLAVSLGQRATISCKASQSVDYDGTSYMNWFQQKAGQPPKRLIYAASNLESGIPARFSGRGSGTDFALNIHPVEEEDAATYYCQQSNEDPYTFGGGTKLEIK | 0.2 | 0.7 | 0.00052 | 2.7e+06 | 22
9 | anti-cTnT Fab mutant 9 (Y34I) (Fab, V domains shown, also called combination 9) VH: EVQLQQSGPELVKPGASVKMSCKASGYTFTDYIMKWVKQSHGKSLEWIGDINPNNGETFYNQKFKDKATLTVDKSSSTAYMQLNSLTSEDSAVYYCATRVFDYWGQGTTLTVSS VL: DIVLTQSPASLAVSLGQRATISCKASQSVDYDGTSYMNWFQQKAGQPPKRLIYAASNLESGIPARFSGRGSGTDFALNIHPVEEEDAATYYCQQSNEDPYTFGGGTKLEIK | 1.2 | 0.7 | 0.0023 | 2e+06 | 5
10 | anti-cTnT Fab mutant 11 (Y34I, F60W, V101Y) (Fab, V domains shown, also called combination 11) VH: EVQLQQSGPELVKPGASVKMSCKASGYTFTDYIMKWVKQSHGKSLEWIGDINPNNGETWYNQKFKDKATLTVDKSSSTAYMQLNSLTSEDSAVYYCATRYFDYWGQGTTLTVSS VL: DIVLTQSPASLAVSLGQRATISCKASQSVDYDGTSYMNWFQQKAGQPPKRLIYAASNLESGIPARFSGRGSGTDFALNIHPVEEEDAATYYCQQSNEDPYTFGGGTKLEIK | 1 | 0.7 | 0.0022 | 2.2e+06 | 5
11 | anti-cTnT Fab mutant 12 (Y34I, F60W, Y104F) (Fab, V domains shown, also called combination 12; combination "12") VH: EVQLQQSGPELVKPGASVKMSCKASGYTFTDYIMKWVKQSHGKSLEWIGDINPNNGETWYNQKFKDKATLTVDKSSSTAYMQLNSLTSEDSAVYYCATRVFDFWGQGTTLTVSS VL: DIVLTQSPASLAVSLGQRATISCKASQSVDYDGTSYMNWFQQKAGQPPKRLIYAASNLESGIPARFSGRGSGTDFALNIHPVEEEDAATYYCQQSNEDPYTFGGGTKLEIK | 0.32 | 0.5 | 0.00037 | 1.18e+06 | 31
12 | anti-cTnT Fab mutant 13 (Y34I, F60W, V101Y + Y104F) (Fab, V domains shown, also called combination 13) VH: EVQLQQSGPELVKPGASVKMSCKASGYTFTDYIMKWVKQSHGKSLEWIGDINPNNGETWYNQKFKDKATLTVDKSSSTAYMQLNSLTSEDSAVYYCATRYFDFWGQGTTLTVSS VL: DIVLTQSPASLAVSLGQRATISCKASQSVDYDGTSYMNWFQQKAGQPPKRLIYAASNLESGIPARFSGRGSGTDFALNIHPVEEEDAATYYCQQSNEDPYTFGGGTKLEIK | 0.62 | 0.7 | 0.0019 | 3e+06 | 6
13 | anti-cTnT Fab mutant 15 (Y34I, Y104F) (Fab, V domains shown, also called combination 15) VH: EVQLQQSGPELVKPGASVKMSCKASGYTFTDYIMKWVKQSHGKSLEWIGDINPNNGETFYNQKFKDKATLTVDKSSSTAYMQLNSLTSEDSAVYYCATRVFDFWGQGTTLTVSS VL: DIVLTQSPASLAVSLGQRATISCKASQSVDYDGTSYMNWFQQKAGQPPKRLIYAASNLESGIPARFSGRGSGTDFALNIHPVEEEDAATYYCQQSNEDPYTFGGGTKLEIK | 1.1 | 0.7 | 0.0023 | 2.2e+06 | 5
14 | anti-cTnT Fab mutant 16 (Y34I, V101Y + Y104F) (Fab, V domains shown, also called combination 16) VH: EVQLQQSGPELVKPGASVKMSCKASGYTFTDYIMKWVKQSHGKSLEWIGDINPNNGETFYNQKFKDKATLTVDKSSSTAYMQLNSLTSEDSAVYYCATRYFDFWGQGTTLTVSS VL: DIVLTQSPASLAVSLGQRATISCKASQSVDYDGTSYMNWFQQKAGQPPKRLIYAASNLESGIPARFSGRGSGTDFALNIHPVEEEDAATYYCQQSNEDPYTFGGGTKLEIK | 3.4 | 0.6 | 0.0059 | 1.7e+06 | 2
15 | anti-cTnT Fab mutant 17 (F60W) (Fab, V domains shown, also called combination 17) VH: EVQLQQSGPELVKPGASVKMSCKASGYTFTDYYMKWVKQSHGKSLEWIGDINPNNGETWYNQKFKDKATLTVDKSSSTAYMQLNSLTSEDSAVYYCATRVFDYWGQGTTLTVSS VL: DIVLTQSPASLAVSLGQRATISCKASQSVDYDGTSYMNWFQQKAGQPPKRLIYAASNLESGIPARFSGRGSGTDFALNIHPVEEEDAATYYCQQSNEDPYTFGGGTKLEIK | 0.54 | 0.7 | 0.0016 | 2.9e+06 | 7

— US20210009668A1 (ROCHE DIAGNOSTICS OPERATIONS, published 2021)
